Assay results reported in the supplement of paper PMC9112550, “Optimization of the antimicrobial peptide Bac7 by deep mutational scanning” (BMC Biology, 2022).

Tested on: Escherichia coli TOP10
Test: shrunken log2 fold change of peptide-encoding DNA abundance (4.5 h post-induction vs induction); higher = less antimicrobial activity (less host growth inhibition)
Details: time post-induction: 4.5 h; library: site-saturation at positions 5, 18, 19, 20
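Also: peptides expressed intracellularly from a pBAD plasmid library in pooled LB shake-flask culture, induced with 0.3% L-arabinose, DNA abundance read by NGS, three biological replicates, DESeq2 with apeglm shrinkage.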

Sequence | shrunken log2 fold change
RRIRKRPPRLPRPRPRPANCPRP | 0.0966
RRIRSRPPRLPRPRPRPAGIPRP | 0.138
RRIRMRPPRLPRPRPRPINVPRP | -0.0528
RRIRQRPPRLPRPRPRPICQPRP | -0.153
RRIRVRPPRLPRPRPRPHTQPRP | 0.00176
RRIRYRPPRLPRPRPRPTRYPRP | -0.469
RRIRGRPPRLPRPRPRPMTTPRP | 1.16
RRIRDRPPRLPRPRPRPLECPRP | 0.0215
RRIRDRPPRLPRPRPRPRVKPRP | 0.103
RRIRKRPPRLPRPRPRPRYLPRP | -0.179
RRIRFRPPRLPRPRPRPGRCPRP | 0.259
RRIRYRPPRLPRPRPRPFYYPRP | -1.18
RRIRNRPPRLPRPRPRPIVEPRP | 0.0466
RRIRDRPPRLPRPRPRPGEEPRP | 0.0844
RRIRFRPPRLPRPRPRPILMPRP | -0.0682
RRIRKRPPRLPRPRPRPCNSPRP | -0.0179
RRIRARPPRLPRPRPRPPLPPRP | 0.762
RRIRGRPPRLPRPRPRPNNTPRP | -0.0658
RRIRARPPRLPRPRPRPAFGPRP | 0.6
RRIRYRPPRLPRPRPRPQKWPRP | -0.16
RRIRARPPRLPRPRPRPDNRPRP | 0.0425
RRIRHRPPRLPRPRPRPPYMPRP | -0.539
RRIRDRPPRLPRPRPRPPPSPRP | 0.838
RRIRIRPPRLPRPRPRPFSDPRP | -0.227
RRIRLRPPRLPRPRPRPELMPRP | 0.0527

Sequence | shrunken log2 fold change
RRIRQRPPRLPRPRPRPQRTPRP | 0.0128
RRIRGRPPRLPRPRPRPGATPRP | 1.39
RRIRMRPPRLPRPRPRPGYAPRP | 0.341
RRIRDRPPRLPRPRPRPHMMPRP | 0.158
RRIRNRPPRLPRPRPRPNGQPRP | -0.0686
RRIRHRPPRLPRPRPRPDWQPRP | 0.00196
RRIRFRPPRLPRPRPRPQDIPRP | -0.0714
RRIRRRPPRLPRPRPRPHHWPRP | 0.0825
RRIRFRPPRLPRPRPRPFQRPRP | 0.0192
RRIRERPPRLPRPRPRPPQLPRP | 0.194
RRIRARPPRLPRPRPRPMRCPRP | 0.162
RRIRNRPPRLPRPRPRPFCYPRP | 0.166
RRIRKRPPRLPRPRPRPCHTPRP | 0.0319
RRIRARPPRLPRPRPRPVQIPRP | -0.0414
RRIRTRPPRLPRPRPRPMFQPRP | -0.446
RRIRCRPPRLPRPRPRPMCNPRP | -0.378
RRIRQRPPRLPRPRPRPTVSPRP | -0.14
RRIRHRPPRLPRPRPRPHDKPRP | -0.293
RRIRTRPPRLPRPRPRPRDFPRP | 0.0849
RRIRTRPPRLPRPRPRPLTFPRP | -0.203
RRIRLRPPRLPRPRPRPIRAPRP | 0.301
RRIRYRPPRLPRPRPRPRYSPRP | -1.43
RRIRQRPPRLPRPRPRPGQFPRP | 0.121
RRIRARPPRLPRPRPRPELHPRP | 0.964
RRIRMRPPRLPRPRPRPRDFPRP | 0.83

Sequence | shrunken log2 fold change
RRIRCRPPRLPRPRPRPSNHPRP | -0.718
RRIRGRPPRLPRPRPRPKPTPRP | 0.527
RRIRWRPPRLPRPRPRPCKPPRP | 0.119
RRIRRRPPRLPRPRPRPKAGPRP | 0.319
RRIRPRPPRLPRPRPRPISQPRP | -0.0721
RRIRWRPPRLPRPRPRPYRAPRP | -0.399
RRIRERPPRLPRPRPRPIFMPRP | -0.1
RRIRERPPRLPRPRPRPAKMPRP | -0.194
RRIRVRPPRLPRPRPRPKRKPRP | 0.376
RRIRVRPPRLPRPRPRPRLRPRP | 0.311
RRIRARPPRLPRPRPRPRGWPRP | 1.07
RRIRVRPPRLPRPRPRPGIWPRP | 0.339
RRIRVRPPRLPRPRPRPNEVPRP | 0.00656
RRIRARPPRLPRPRPRPQGLPRP | 0.208
RRIRRRPPRLPRPRPRPPMPPRP | 0.568
RRIRLRPPRLPRPRPRPWRHPRP | -0.0415
RRIRMRPPRLPRPRPRPSCMPRP | -0.0641
RRIRWRPPRLPRPRPRPHVPPRP | -0.161
RRIRIRPPRLPRPRPRPDDPPRP | -0.0328
RRIRRRPPRLPRPRPRPMTAPRP | 0.0357
RRIRNRPPRLPRPRPRPEWNPRP | 0.0541
RRIRKRPPRLPRPRPRPLYCPRP | -0.237
RRIRKRPPRLPRPRPRPNAGPRP | -0.00783
RRIRARPPRLPRPRPRPYGSPRP | -0.0423
RRIRPRPPRLPRPRPRPYRYPRP | 0.101

Sequence | shrunken log2 fold change
RRIRIRPPRLPRPRPRPTPGPRP | 0.131
RRIRTRPPRLPRPRPRPWCAPRP | -0.203
RRIRGRPPRLPRPRPRPYQEPRP | 0.0063
RRIRERPPRLPRPRPRPFKVPRP | 0.14
RRIRHRPPRLPRPRPRPQHQPRP | -0.192
RRIRERPPRLPRPRPRPPACPRP | 0.0779
RRIRRRPPRLPRPRPRPNKMPRP | -0.0549
RRIRTRPPRLPRPRPRPQGWPRP | 0.704
RRIRDRPPRLPRPRPRPNMEPRP | 0.0616
RRIRHRPPRLPRPRPRPHIGPRP | -0.0123
RRIRERPPRLPRPRPRPNSYPRP | -0.433
RRIRKRPPRLPRPRPRPWIEPRP | 0.00935
RRIRNRPPRLPRPRPRPYAMPRP | 0.0743
RRIRCRPPRLPRPRPRPITAPRP | -3.59e-05
RRIRRRPPRLPRPRPRPYHLPRP | -0.307
RRIRDRPPRLPRPRPRPVSRPRP | 0.218
RRIRKRPPRLPRPRPRPFQFPRP | -0.018
RRIRARPPRLPRPRPRPMHEPRP | 0.671
RRIRMRPPRLPRPRPRPEPPPRP | 1.76
RRIRTRPPRLPRPRPRPFEEPRP | 0.00896
RRIRCRPPRLPRPRPRPNSVPRP | -0.143
RRIRDRPPRLPRPRPRPQMCPRP | -0.183
RRIRIRPPRLPRPRPRPDGPPRP | -0.0369
RRIRVRPPRLPRPRPRPPLGPRP | 0.554
RRIRRRPPRLPRPRPRPYVSPRP | -0.00885

Sequence | shrunken log2 fold change
RRIRHRPPRLPRPRPRPNYTPRP | -0.529
RRIRNRPPRLPRPRPRPTDAPRP | -0.15
RRIRTRPPRLPRPRPRPALNPRP | -0.0937
RRIRMRPPRLPRPRPRPLACPRP | 0.244
RRIRVRPPRLPRPRPRPGNAPRP | 0.133
RRIRTRPPRLPRPRPRPVAPPRP | 0.389
RRIRDRPPRLPRPRPRPDRYPRP | -0.395
RRIRGRPPRLPRPRPRPKNAPRP | 1.91
RRIRWRPPRLPRPRPRPVEAPRP | 0.249
RRIRNRPPRLPRPRPRPKFSPRP | -0.0617
RRIRTRPPRLPRPRPRPKKVPRP | -0.282
RRIRPRPPRLPRPRPRPHACPRP | 0.00839
RRIRMRPPRLPRPRPRPWCMPRP | -0.0453
RRIRFRPPRLPRPRPRPMGNPRP | -0.707
RRIRIRPPRLPRPRPRPAPHPRP | -0.0179
RRIRERPPRLPRPRPRPAQLPRP | -0.124
RRIRDRPPRLPRPRPRPHMPPRP | 0.0902
RRIRWRPPRLPRPRPRPQFDPRP | 0.0373
RRIRMRPPRLPRPRPRPEVCPRP | 0.0476
RRIRSRPPRLPRPRPRPADNPRP | 0.00328
RRIRRRPPRLPRPRPRPFTTPRP | -0.0176
RRIRKRPPRLPRPRPRPKWVPRP | 0.339
RRIRLRPPRLPRPRPRPSDEPRP | -0.255
RRIRWRPPRLPRPRPRPDRPPRP | -0.0134
RRIRARPPRLPRPRPRPEKDPRP | 0.366
